Substitutions are numbered along the chain they refer to.

The values that follow come from US20240270821A1, “GIP/GLP1/GCG TRI-RECEPTOR AGONISTS AND USES THEREOF” (priority 2023, published 2024).

To fix the notation:
T1: human GIP receptor (human) (UniProt P48546)
T1 sequence (looked up): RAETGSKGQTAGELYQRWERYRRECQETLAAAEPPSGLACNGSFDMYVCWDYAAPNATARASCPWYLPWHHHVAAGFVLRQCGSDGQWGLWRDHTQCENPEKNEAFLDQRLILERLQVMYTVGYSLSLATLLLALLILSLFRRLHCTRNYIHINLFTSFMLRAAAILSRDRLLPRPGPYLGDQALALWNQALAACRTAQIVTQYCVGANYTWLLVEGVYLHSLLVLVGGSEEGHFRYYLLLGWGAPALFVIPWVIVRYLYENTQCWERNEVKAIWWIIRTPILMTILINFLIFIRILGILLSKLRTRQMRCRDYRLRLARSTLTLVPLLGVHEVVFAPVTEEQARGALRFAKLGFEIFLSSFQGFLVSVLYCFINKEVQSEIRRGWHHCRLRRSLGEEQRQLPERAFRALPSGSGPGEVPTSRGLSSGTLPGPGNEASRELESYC

B1: Example 823 (peptide)
chain: YXQGTFTSDXSQXLDKKAQXAFIEYLLEAGPSSGAPPPSGT
modifications: synthetic construct; SITE 2: note = 2-Aminoisobutyric Acid; SITE 10: note = 3-(4-Pyridyl)-L-alanine; SITE 13: note = alpha-methyl-leucine; SITE 17: note = Lysine is chemically modified through conjugation of the epsilon-amino group of the Lysine side chain with (2-[2-(2-Amino-ethoxy)-ethoxy]-acetyl)
B2: Example 797 (peptide)
chain: B1 chain with X10F, Q12K, L27I, A29X, T41S
modifications: synthetic construct; SITE 2: note = 2-Aminoisobutyric Acid; SITE 13: note = alpha-methyl-leucine; SITE 17: note = Lysine is chemically modified through conjugation of the epsilon-amino group of the Lysine side chain with (2-[2-(2-Amino-ethoxy)-ethoxy]-acetyl)-(gamma-Glu)-CO-(CH2) 16-CO2H; SITE 20: n
B3: Example 883 (SEQ ID NO: 889) (peptide)
chain: B1 chain with L27I, E28A, A29G, T41E
modifications: synthetic construct; SITE 2: note = 2-Aminoisobutyric Acid; SITE 10: note = 3-(4-Pyridyl)-L-alanine; SITE 13: note = alpha-methyl-leucine; SITE 17: note = Lysine is chemically modified through conjugation of the epsilon-amino group of the Lysine side chain with (gamma-Glu)2-CO-(CH2)16-CO2H; SITE 20:
B4: Example 76 (peptide)
chain: B1 chain with X10F, Q12X, E28A, A29G, T41S
modifications: synthetic construct; SITE 2: note = 2-Aminoisobutyric Acid; SITE 12: note = L-ornithine; SITE 13: note = alpha-methyl-leucine; SITE 17: note = Lysine is chemically modified through conjugation of the epsilon-amino group of the Lysine side chain with (2-[2-(2-Amino-ethoxy)-ethoxy]-acetyl)-(gamma-Glu)
B5: Example 800 (peptide)
chain: B1 chain with X10F, Q12X, L27I, A29X, T41S
modifications: synthetic construct; SITE 2: note = 2-Aminoisobutyric Acid; SITE 12: note = (S)-2,3-diaminopropanoic acid; SITE 13: note = alpha-methyl-leucine; SITE 17: note = Lysine is chemically modified through conjugation of the epsilon-amino group of the Lysine side chain with (2-[2-(2-Amino-ethoxy)-ethoxy]-a)
B6: Example 804 (peptide)
chain: YXQGTFTSDFSXXLDKKAQXAFIEYLIEXSPSSGAPPPSGS
modifications: synthetic construct; SITE 2: note = 2-Aminoisobutyric Acid; SITE 12: note = L-ornithine; SITE 13: note = alpha-methyl-leucine; SITE 17: note = Lysine is chemically modified through conjugation of the epsilon-amino group of the Lysine side chain with (2-[2-(2-Amino-ethoxy)-ethoxy]-acetyl)-(gamma-Glu)
B7: Example 891 (SEQ ID NO: 897) (peptide)
chain: YXQGTFTSDXSQXLDKKAQXAFIEYLIEXGPSSGAPPPSGSGE
modifications: not fully specified; C-terminus uncertain, likely amide; synthetic construct; SITE 2: note = 2-Aminoisobutyric Acid; SITE 10: note = 3-(4-Pyridyl)-L-alanine; SITE 13: note = alpha-methyl-leucine; SITE 17: note = Lysine is chemically modified through conjugation of the epsilon-amino group of the Lysine side chain with (gamma-Glu)2-CO-(CH2)16-CO2H; SITE 20:
B8: Example 893 (SEQ ID NO: 899) (peptide)
chain: B7 chain
modifications: not fully specified; synthetic construct; SITE 2: note = 2-Aminoisobutyric Acid; SITE 10: note = 3-(4-Pyridyl)-L-alanine; SITE 13: note = alpha-methyl-leucine; SITE 17: note = Lysine is chemically modified through conjugation of the epsilon-amino group of the Lysine side chain with (gamma-Glu)2-CO-(CH2)16-CO2H; SITE 20:
B9: Example 902 (peptide)
chain: B7 chain with Q12K, G42E
modifications: synthetic construct; SITE 2: note = 2-Aminoisobutyric Acid; SITE 10: note = 3-(4-Pyridyl)-L-alanine; SITE 13: note = alpha-methyl-leucine; SITE 17: note = Lysine is chemically modified through conjugation of the epsilon-amino group of the Lysine side chain with (2-[2-(2-Amino-ethoxy)-ethoxy]-acetyl)
B10: Example 824 (peptide)
chain: B1 chain with G34X
modifications: C-terminal amide; acylated; synthetic construct; SITE 2: note = 2-Aminoisobutyric Acid; SITE 10: note = 3-(4-Pyridyl)-L-alanine; SITE 13: note = alpha-methyl-leucine; SITE 17: note = Lysine is chemically modified through conjugation of the epsilon-amino group of the Lysine side chain with (2-[2-(2-Amino-ethoxy)-ethoxy]-acetyl)
B11: Example 825 (peptide)
chain: B1 chain with G34X
modifications: synthetic construct; SITE 2: note = 2-Aminoisobutyric Acid; SITE 10: note = 3-(4-Pyridyl)-L-alanine; SITE 13: note = alpha-methyl-leucine; SITE 17: note = Lysine is chemically modified through conjugation of the epsilon-amino group of the Lysine side chain with (2-[2-(2-Amino-ethoxy)-ethoxy]-acetyl)
B12: Example 901 (peptide)
chain: YXQGTFTSDXSKXLDKKAQXAFIEYLIEXGPSSGAPPPSGSE
modifications: synthetic construct; SITE 2: note = 2-Aminoisobutyric Acid; SITE 10: note = 3-(4-Pyridyl)-L-alanine; SITE 13: note = alpha-methyl-leucine; SITE 17: note = Lysine is chemically modified through conjugation of the epsilon-amino group of the Lysine side chain with (2-[2-(2-Amino-ethoxy)-ethoxy]-acetyl)
B13: Example 903 (peptide)
chain: YXQGTFTSDXSKXLDKKAQXAFIEYLIEXGPSSGAPPPSGSEEE
modifications: synthetic construct; SITE 2: note = 2-Aminoisobutyric Acid; SITE 10: note = 3-(4-Pyridyl)-L-alanine; SITE 13: note = alpha-methyl-leucine; SITE 17: note = Lysine is chemically modified through conjugation of the epsilon-amino group of the Lysine side chain with (2-[2-(2-Amino-ethoxy)-ethoxy]-acetyl)

One experiment has as its target T1, human GIP receptor (human). Briefly: cell-based or functional assay.
For B1, the Relative cAMP EC50 worked out at 0.171 nM and the cAMP Rel EC50 (1% HSA) turned out to be 25.6 nM.
The corresponding values for B2 are 0.0781 nM and 16.7 nM.
B3 returned a cAMP Rel EC50 of 9.41 nM.
As for B4, the Relative cAMP EC50 is 0.196 nM and the cAMP Rel EC50, nM (in the presence of 1% HSA) was found to be 45.5 nM.
With B5, the Relative cAMP EC50 is 0.283 nM and the cAMP Rel EC50 (1% HSA) was found to be 40.2 nM.
B6 showed a Relative cAMP EC50 of 0.0751 nM and a cAMP Rel EC50 (1% HSA) of 17.6 nM.
As for B7, the cAMP Rel EC50 amounted to 16 nM.
B8 came in with a cAMP Rel EC50 of 21.4 nM.
Consider B9, for which the Relative cAMP EC50 is 0.19 nM and the cAMP Rel EC50 (1% HSA) was determined as 28.5 nM.
The corresponding values for B10 are 0.123 nM and 28.9 nM.
Taken in the same sequence, the figures for B11 were 0.12 nM and 39.3 nM.
On to B12, for which the Relative cAMP EC50 is 0.17 nM and the cAMP Rel EC50 (1% HSA) turned out to be 34 nM.
As to B13, the Relative cAMP EC50 worked out at 0.277 nM and the cAMP Rel EC50 (1% HSA) is 31.2 nM.

The target in the next experiment is human glucagon receptor (human) (UniProt P47871). Briefly: cell-based or functional assay.
human glucagon receptor (human), sequence (P47871 26-477): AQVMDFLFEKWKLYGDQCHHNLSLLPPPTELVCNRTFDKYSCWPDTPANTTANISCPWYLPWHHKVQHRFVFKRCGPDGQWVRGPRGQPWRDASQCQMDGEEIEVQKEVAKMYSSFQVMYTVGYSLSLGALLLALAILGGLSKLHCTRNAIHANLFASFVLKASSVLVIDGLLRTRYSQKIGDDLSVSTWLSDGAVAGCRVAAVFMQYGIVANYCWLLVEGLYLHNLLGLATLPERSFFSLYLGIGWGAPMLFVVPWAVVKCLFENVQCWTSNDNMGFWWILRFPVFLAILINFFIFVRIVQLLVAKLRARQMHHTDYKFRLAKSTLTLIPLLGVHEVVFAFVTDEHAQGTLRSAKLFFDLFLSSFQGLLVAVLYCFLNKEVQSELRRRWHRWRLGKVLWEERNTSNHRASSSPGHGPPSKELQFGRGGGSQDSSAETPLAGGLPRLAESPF
As for B1, the Relative cAMP EC50 was found to be 7.75 nM and the cAMP Rel EC50 (1% HSA) was 1410 nM.
The corresponding values for B2 are 3.78 nM and 963 nM.
In the case of B3, the cAMP Rel EC50 was determined as 578 nM.
With B4, the Relative cAMP EC50 was determined as 11.1 nM and the cAMP Rel EC50, nM (in the presence of 1% HSA) came to 2240 nM.
In turn, B5 registered a Relative cAMP EC50 of 21 nM and a cAMP Rel EC50 (1% HSA) of 2500 nM.
Taken in the same sequence, the figures for B6 were 11.5 nM and 2310 nM.
Turning to B7, the cAMP Rel EC50 turned out to be 581 nM.
In turn, B8 registered a cAMP Rel EC50 of 508 nM.
For the molecule B9, the Relative cAMP EC50 came to 15.9 nM and the cAMP Rel EC50 (1% HSA) is 1360 nM.
The corresponding values for B10 are 7.92 nM and 1110 nM.
In the case of B11, the Relative cAMP EC50 stood at 5.53 nM and the cAMP Rel EC50 (1% HSA) is 1810 nM.
With B12, the Relative cAMP EC50 came to 9.09 nM and the cAMP Rel EC50 (1% HSA) came to 1150 nM.
The corresponding values for B13 are 12.9 nM and 1630 nM.

A further experiment deals with hGLP-1R (Homo sapiens, UniProt P43220). Description: cell-based or functional assay.
hGLP-1R, sequence (P43220 24-463): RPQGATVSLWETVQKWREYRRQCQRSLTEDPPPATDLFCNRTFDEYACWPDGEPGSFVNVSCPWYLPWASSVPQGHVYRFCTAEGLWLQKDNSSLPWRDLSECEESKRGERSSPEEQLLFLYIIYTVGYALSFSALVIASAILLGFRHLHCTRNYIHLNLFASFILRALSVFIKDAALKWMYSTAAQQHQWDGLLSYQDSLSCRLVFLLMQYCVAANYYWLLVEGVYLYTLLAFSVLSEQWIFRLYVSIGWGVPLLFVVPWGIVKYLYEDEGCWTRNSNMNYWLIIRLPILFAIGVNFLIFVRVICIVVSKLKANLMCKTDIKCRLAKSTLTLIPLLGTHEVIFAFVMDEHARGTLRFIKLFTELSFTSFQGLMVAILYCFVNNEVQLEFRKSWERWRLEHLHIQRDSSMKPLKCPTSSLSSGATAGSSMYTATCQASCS
B1 showed a Relative cAMP EC50 of 2.96 nM and a cAMP Rel EC50 (1% HSA) of 421 nM.
Taken in the same sequence, the figures for B2 were 0.449 nM and 102 nM.
As to B3, the cAMP Rel EC50 is 120 nM.
On to B4, for which the Relative cAMP EC50 is 2.25 nM and the cAMP Rel EC50, nM (in the presence of 1% HSA) is 436 nM.
Turning to B5, the Relative cAMP EC50 amounted to 0.486 nM and the cAMP Rel EC50 (1% HSA) was 164 nM.
Taken in the same sequence, the figures for B6 were 0.915 nM and 161 nM.
Regarding B7, the cAMP Rel EC50 came to 330 nM.
In turn, B8 yielded a cAMP Rel EC50 of 305 nM.
With B9, the Relative cAMP EC50 is 2.58 nM and the cAMP Rel EC50 (1% HSA) stood at 232 nM.
For the molecule B10, the Relative cAMP EC50 was 2.43 nM and the cAMP Rel EC50 (1% HSA) is 343 nM.
As for B11, the Relative cAMP EC50 is 3.4 nM and the cAMP Rel EC50 (1% HSA) is 303 nM.
Taken in the same sequence, the figures for B12 were 1.26 nM and 193 nM.
As to B13, the Relative cAMP EC50 was determined as 2.7 nM and the cAMP Rel EC50 (1% HSA) was 387 nM.
